Reference: patent publication US20040248211A1, “ICAM-related protein” (priority 1992, published 2004)

B1: ICR-1.1: anti-ICAM-R monoclonal antibody, IgG2a, domain 1, ATCC HB 11053 (antibody, V domains shown)
VH: QVQLQQSGAELAKPGASVKMSCKASGYTFTVYWMHWVKQRPGQGLEWIGYINPNTDYTEYNQRFQDKATLTADKSSSTAYMQLSSLTSEDSAVYYCARWGGNSYGLDYWGQGTSVTVSS
VL: QIVLTQSPALMSASPGEKVTMTCSASSSVSYIYWYQQKPRSSPKPWIYLTSNLASGVPARFSGSGSGASYSLTISIMEAEDAATYYCQQWKSIPLTFGAGTKLELK
B2: ICR-8.1: anti-ICAM-R monoclonal antibody, IgG1, domain 1, ATCC HB 11232 (antibody, V domains shown)
VH: EIQLQQTGPELVKPGASVKISCKASGYSFTDCIILWVKQSHGKGLEWIGKINPYFGTTTYNLKFKGKATLTVDKSSSTAHMQLNSLTSEDSAVYYCARKEAYPDAMDYWGQGTSVTVSS
VL: DAVMTQTPLSLPVSLGDQASISCRSSQSLVHSNGDTYLHWYLQKPGQSPQLLIYKVSNRFSGVPDRFSGSGSGTDFTLKLSRVEAEDLGVYFCSQSTHVPYTFGGGTKLEIK

What was measured:
Monocytes = test: MCP-1 release from monocytes; assay type: cell-based, human; conditions: for release of MCP-1 into conditioned medium: 8 and 18 hour time points
Protocol: (§1) Monocytes were isolated by elutriation from peripheral blood of normal donors. Plastic wells were coated with ICR-1.1, 2.1, 8.1 or albumin alone (10 μg/ml). After blocking free sites, the cells were placed into the wells in medium. After 1 hour in culture, the cells that were in the ICR Mab treated wells had flattened onto the substratum. Those cells plated in wells treated with BSA plus or minus LPS were rounded and not spread. After 8 or 18 hours of incubation at 37° C., the medium was removed and assayed for IL-8 immunoreactivity. […] By 18 hours, IL-8 levels in media from ICR monoclonal antibody wells were much elevated over control levels. ICR-1.1 induced levels increased ten times, ICR-2.1 induced levels were four times and ICR-8.1 induced levels were two times over the levels seen at the 8 hour time point. Similar experiments with monocytic cell lines (U937 and HL60) to determine if ICR monoclonal antibody can induce IL-8 release were conducted. U937 cells responded to each of the ICR monoclonal antibody treated wells by releasing IL-8 into the conditioned medium. […] No detectable morphological changes were detected with the U937 or HL60 cells.
Monocytes isolated and treated as described above were tested for release of MCP-1 at 8 and 18 hour time points. […] MCP-1 release elicited by ICR-1.1 peaked at 8 hours. Release from Mab ICR-2.1 and ICR-8.1 was not detected until 18 hours when it was 4-fold greater than the peak 1.1 induction level.

U937 cells = test: IL-8 release from U937; assay type: cell-based, human
Protocol: as §1, with “Plastic wells were coated with ICR-1.1, 2.1, 8.1 or albumin alone (10 μg/ml).” left out, “After 1 hour in culture, the cells that were in the ICR Mab treated wells had flattened onto the substratum.” left out, “ICR-1.1 induced levels increased ten times, ICR-2.1 induced levels were four times and ICR-8.1 induced levels were two times over the levels seen at the 8 hour time point.” left out

soluble ICAM-R = biological target: T1, soluble ICAM-R (Homo sapiens, UniProt P32942); test: ELISA binding to soluble ICAM-R coated onto plastic; conditions: serially diluted purified antibody; 50% maximal binding
T1 construct: made in house; host or cells: Sf-9 insect cells, recombinant baculovirus (pBBIII.ICAM-Rt1), purified on Lentil Lectin Sepharose
T1 sequence (P32942 30-485 limits assumed): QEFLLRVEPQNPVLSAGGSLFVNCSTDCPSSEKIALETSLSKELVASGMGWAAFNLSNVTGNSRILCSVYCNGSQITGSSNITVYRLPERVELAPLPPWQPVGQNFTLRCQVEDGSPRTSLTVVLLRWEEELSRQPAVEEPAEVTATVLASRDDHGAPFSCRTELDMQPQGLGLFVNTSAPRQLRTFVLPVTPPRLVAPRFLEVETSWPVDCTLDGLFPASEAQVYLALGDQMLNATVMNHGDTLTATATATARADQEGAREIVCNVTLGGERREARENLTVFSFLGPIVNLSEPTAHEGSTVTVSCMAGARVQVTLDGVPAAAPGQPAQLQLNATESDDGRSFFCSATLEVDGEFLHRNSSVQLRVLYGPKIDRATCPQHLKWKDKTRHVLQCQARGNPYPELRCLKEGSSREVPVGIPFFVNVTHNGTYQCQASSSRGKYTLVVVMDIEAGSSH
Protocol: Nine of the purified anti-ICAM-R monoclonal antibodies were diluted serially and assayed in an ELISA format for binding to a fixed amount of soluble ICAM-R (Example 9) coated onto plastic. The results of the assay are presented in Table 3 below wherein high affinity binding was defined as 50% maximal binding at a monoclonal antibody concentration of less than 1 μg/ml and low affinity binding was defined as 50% maximal binding at a monoclonal antibody concentration of greater than 1 μg/ml.

[1] = test system: binding of JY cells (CD18+) to recombinant soluble human ICAM-R; test: JY cell adhesion to recombinant soluble human ICAM-R; assay type: cell-based; conditions: for Inhibition (%) of total CD18-dependent binding: antibody 10 μg/ml, PMA-treated JY cells, total = adhesion blocked by anti-CD18 60.3
Protocol: The partially purified shICAM-R protein was assayed for binding to SKW3 cells that were pretreated with phorbol ester as described in Example 7 to activate LFA-1-dependent adhesion. The ICAM-R protein was coated onto 96-well Immulon 4 (Dynatech) plates after adjusting the lectin eluate to 25 mM carbonate pH 9.6 and incubated overnight at 4° C. The plates were washed two times with PBS, blocked for 30 minutes at 37° C. with 200 ul/well PBS, 1% BSA, and washed again with PBS before adding cells. SKW3 cells were washed in serum-free RPMI (Gibco), labelled with Calcein-AM (Molecular Probes), and stimulated with PMA. Cells were then added to the plates and incubated for 1 hour at 37° C. The plates were inverted in prewarmed PBS, 1% BSA and were incubated for 30 minutes. The plates were then removed and half of the contents of each well was aspriated. The plates were then scanned with a fluorescence microscope and an automated fluorescence reader.
ICAM-R specific monoclonal antibodies listed in Table 11 in Example 22 were tested for their ability to inhibit binding of JY cells (CD18^+) to recombinant soluble human ICAM-R. Adhesion assays were performed as described in Example 9. Cells were treated with PMA and antibodies were then added at a final concentration of 10 μg/ml. Data was collected from triplicate wells during three independent experiments. Total CD18-dependent binding was determined as the amount of adhesion blocked by a control anti-CD18 monoclonal antibody 60.3. The percentage of total CD18-dependent binding that was inhibited by each monoclonal antibody is shown below in Table 4 wherein the names assigned to monoclonal antibodies produced by each hybridoma are given and “ND” indicates the antibody was not tested. The monoclonal antibody names are used throughout the following examples instead of hybridoma designations.

human PBL = test: SEA-induced proliferation of PBL; assay type: cell-based; conditions: for proliferation in response to SEA, plate-bound antibody: 3 days, 3H-thymidine
[2] = test system: PBMC responder and irradiated stimulator cells; test: Alloantigen-induced lymphocyte proliferation; assay type: cell-based, human
Protocol: Monoclonal antibodies to ICAM-R were also tested for the ability to alter lymphocyte proliferation (as measured by ^3H-thymidine incorporation) in response to alloantigenic irradiated stimulator cells. Responder cells were prepared by obtaining PBMC from a normal donor using Histopaque centrifugation as described above. To prepare stimulator cells, PBMC from a second, unrelated donor were concurrently isolated and irradiated at 1500R by exposure to a gamma emitting cesium source. Two hundred thousand responder cells and 2×10^5 irradiated stimulator cells (suspended in culture medium) were then added to wells containing soluble or immobilized ICR-1.1, ICR-2.1, ICR-3.1, ICR-4.2, ICR-5.1, ICR-6.2, ICR-7.1, ICR-8.1, ICR-9.2, immobilized B-H9, immobilized p10.1, or soluble 515F (anti-rat CD18) antibody and incubated for 6 days at 37° C., 5% CO2. Lymphocyte proliferation (^3H-thymidine incorporation) was assessed in the last 18-24 hours of culture.

Molecule	time of peak MCP-1 release (Monocytes) [h]	release of MCP-1 into conditioned medium (Monocytes)	IL-8 release relative to ICR-4.2, 6.2 or 8.1 treated wells (U937 cells) [fold]	Affinity (soluble ICAM-R)	Blockade of Adhesion of JY Cells to Soluble ICAM-R [1]	Inhibition (%) of total CD18-dependent binding [1] [%]	Blockade of Lymphocyte Activation SEA (human PBL)	proliferation in response to SEA, plate-bound antibody (human PBL)	IC50 (human PBL; from logistic dose response curves, proliferation versus control antibodies) [µg/mL]	Blockade of Lymphocyte Activation Alloantigen [2]	alloantigen proliferation, immobilized antibody ([2]; 6 days)	MCP-1 release at 18 hours relative to the peak ICR-1.1 induction level (Monocytes; not detected until 18 hours) [fold]	IL-8 release relative to the BSA control (U937 cells)	alloantigen proliferation, soluble antibody ([2]; 6 days)
B1	8	induced release of MCP-1	3	Low (50% maximal binding at a monoclonal antibody concentration of greater than 1 μg/ml)	YES	45	YES	significantly inhibited proliferation	63	YES	consistently reduced proliferation	–	–	–
B2	–	induced release of MCP-1	–	High (50% maximal binding at a monoclonal antibody concentration of less than 1 μg/ml)	YES	75	YES	significantly inhibited proliferation	–	YES	consistently reduced proliferation	4	twice	inhibited alloantigen-stimulated proliferation
